Measurements: patent US20060166920A1, “Oligonucleotide based therapeutics” (Regents of the University of Michigan, priority 2004, published 2006)

Legend:
[1] = system: human Bcl-xL; test: Western blot of MCF-7 cells transfected with Bcl-xL siRNA cassettes; assay type: cell-based
Protocol: (§1) Human prostate cancer PC-3 cells and human breast cancer MCF-7 cells were transfected with the designed Bcl-xL dsRNA (siRNA) cassettes, using a transferrin-liposome system (LipofectaminePlus, Invitrogen). Briefly, 5×10^5 cells were plated per well in 6-well plates. After overnight culture, the cells were 60% to 70% confluent. The transfection was performed according to the manufacturer's instruction, with 0.4 μg siRNA cassette DNA per well. The cells were cultured for 48 hr, then harvested and cell lysates were made for Western blot analysis. 15 μg of protein were added to each lane for SDS-PAGE. […] Similar results were also observed in MCF-7 cells (See, e.g., FIG. 2). […] Therefore, with efficient delivery to the cells, the Bcl-xL siRNA effectively induces cell death.

[2] = system: Bcl-xS; test: as above; assay type: cell-based, human; conditions: 0.4 μg siRNA cassette DNA per well, 48 hr
Protocol: as §1

[3] = system: Bcl-xS; test: Western blot of PC-3 cells transfected with Bcl-xL siRNA cassettes; assay type: cell-based, human; conditions: 0.4 μg siRNA cassette DNA per well, 48 hr
Protocol: as §1

[4] = system: human breast cancer MCF-7 cells; test: Cell death of MCF-7 cells after transfection; assay type: cell-based; conditions: MCF-7 cells 48 hr after transfection of siRNA cassette
Protocol: as §1
MCF-7 and PC-3 cells were transfected with psiBcl-xL (transfection conditions were performed as described above). In some experiments, FuGene 6 (Roche) was used due to low toxicity and high efficiency for plasmid transfection. Briefly, 60% confluent cells were transfected with 1-3 μg psiBcl-xL or psiLuc DNA per well in a 6-well plate (DNA:FuGene 6 ratio=1 μg:3 μl). […] The transfection efficiency of FuGene 6 (as detected by green fluorescence protein (GFP) expression; psiBcl-xL posseses the green fluorescence protein (GFP) gene, See, e.g., FIG. 4) for MCF-7 cells was about 40% -50%. […]

[5] = system: human Bcl-xL; test: Western blot of PC-3 cells transfected with Bcl-xL siRNA cassettes; assay type: cell-based; conditions: inferred from transfection efficiency of 40% to 50%
Protocol: as §1

Row | Molecule | down-regulation of Bcl-xL ([1]; 0.4 μg siRNA cassette DNA per well, LipofectaminePlus, 48 hr) | Bcl-xL down-regulation in the transfected cells ([1]; inferred from transfection efficiency of 40%-50%) | effect on Bcl-xS expression [2] | effect on Bcl-xS expression [3] | cell death [4] | Bcl-xL gene knockdown in the cells transfected [5]
1 | siRNA #2: Bcl-xL small hairpin siRNA cassette, SEQ ID NO: 4, 76 bp (nucleic acid, listed as Homo sapiens, expressed or natural sequence; the letters are possibly those of the target site) DNA: GGATCCCGCTTGTCTACGCTTTCCACGCATTGATATCCGTGCGTGGAAAGCGTAGACAAGTTTTTTCCAAAAGCTT | > 50% | ~100% | without significantly affecting Bcl-xS expression | without significantly affecting Bcl-xS expression | up to 50% | ~100%
2 | siRNA #3: Bcl-xL small hairpin siRNA cassette, SEQ ID NO: 5, 76 bp (nucleic acid, listed as Homo sapiens, expressed or natural sequence; the letters are possibly those of the target site) DNA: GGATCCCGCGATCCGACTCACCAATACCTTTGATATCCGAGGTATTGGTGAGTCGGATCGTTTTTTCCAAAAGCTT | – | – | – | without significantly affecting Bcl-xS expression | somewhat less cell death | ~100%
